Where a chain is given by its changes, count along the chain named.

The labels stand for the following.
B1: B21H4-41 (antibody, human IgG4 S228P, kappa, V domains shown)
VH: EVQLVESGGGLVQPGGSLRLSCAASGFSLNTYAMTWVRQAPGKGLEWISIIVASGGTYYASWAKGRFTISRDNAKSSVYLQLTSLTTEDTAVYYCARGGMGSDWGESLDAFDPWGQGTMVTVSS
VL: DIQMTQSPSTLSASVGDRVTITCQASGNIYSFLAWYQQKPGKAPKLLIYTASNLETGVPSRFSGSGSGTEYTLTISSLQPDDFATYYCLGGLYSSDVSYAFGPGTKVEIKR
notes: humanized IgG4/kappa, VH4+VL1; transfection supernatant
B2: B21H4-51 (antibody, human IgG4 S228P, kappa, V domains shown)
VH: QVQLEESGGRLVQPGTSLRLSCAVSGFSLNTYAMTWVRQAPGKGLEWIGIIVASGGTYYASWAKGRFTISRDTSKNTLYLQITSLRAEDTATYFCARGGMGSDWGESLDAFDPWGQGTLVTVSS
VL: B1 VL
notes: humanized IgG4/kappa, VH5+VL1; transfection supernatant
B3: B21H4-44 (antibody, human IgG4 S228P, kappa, V domains shown)
VH: B1 VH
VL: B1 VL with I2V, Q3V, L11V, I21L, K42Q, A43P, S60D, E70D, P80A, P103Q
notes: humanized IgG4/kappa, VH4+VL4; transfection supernatant
B4: B21H4-45 (antibody, human IgG4 S228P, kappa)
heavy: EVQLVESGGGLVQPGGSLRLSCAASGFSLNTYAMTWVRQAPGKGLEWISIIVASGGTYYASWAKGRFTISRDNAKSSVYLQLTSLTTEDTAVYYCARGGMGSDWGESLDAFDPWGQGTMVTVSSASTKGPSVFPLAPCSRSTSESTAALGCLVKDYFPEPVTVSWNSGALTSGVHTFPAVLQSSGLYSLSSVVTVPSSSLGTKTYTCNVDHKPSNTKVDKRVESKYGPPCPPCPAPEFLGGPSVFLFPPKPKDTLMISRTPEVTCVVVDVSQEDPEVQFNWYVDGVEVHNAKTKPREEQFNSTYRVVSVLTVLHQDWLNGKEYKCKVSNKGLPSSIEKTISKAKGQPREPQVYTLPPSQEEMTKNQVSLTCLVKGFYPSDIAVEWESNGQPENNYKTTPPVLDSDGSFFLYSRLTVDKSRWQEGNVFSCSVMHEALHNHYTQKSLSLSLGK
light: DIQMTQTPSTVEASVGGTVTITCQASGNIYSFLAWYQQKPGQPPKLLIYTASNLETGVPSRFSGSGSGTEYTLTISGLQSDDAATYYCLGGLYSSDVSYAFGGGTEVVVKRTVAAPSVFIFPPSDEQLKSGTASVVCLLNNFYPREAKVQWKVDNALQSGNSQESVTEQDSKDSTYSLSSTLTLSKADYEKHKVYACEVTHQGLSSPVTKSFNRGEC
notes: humanized IgG4/kappa, VH4+VL5; transfection supernatant
B5: B21H4-35 (antibody, human IgG4 S228P, kappa, V domains shown)
VH: EVQLVESGGDLAQPGGSLRLSCAVSGFSLNTYAMTWVRQAPGKGLEWVSIIVASGGTYYASWAKGRFTISRDNSKNTVYLQMTSLRAEDTALYFCARGGMGSDWGESLDAFDPWGQGTLVTVSS
VL: DIQMTQTPSTVEASVGGTVTITCQASGNIYSFLAWYQQKPGQPPKLLIYTASNLETGVPSRFSGSGSGTEYTLTISGLQSDDAATYYCLGGLYSSDVSYAFGGGTEVVVKR
notes: humanized IgG4/kappa, VH3+VL5; transfection supernatant
B6: B21H4-31 (antibody, human IgG4 S228P, kappa, V domains shown)
VH: B5 VH
VL: B1 VL
notes: humanized IgG4/kappa, VH3+VL1; transfection supernatant
B7: B21H4-25 (antibody, human IgG4 S228P, kappa)
heavy: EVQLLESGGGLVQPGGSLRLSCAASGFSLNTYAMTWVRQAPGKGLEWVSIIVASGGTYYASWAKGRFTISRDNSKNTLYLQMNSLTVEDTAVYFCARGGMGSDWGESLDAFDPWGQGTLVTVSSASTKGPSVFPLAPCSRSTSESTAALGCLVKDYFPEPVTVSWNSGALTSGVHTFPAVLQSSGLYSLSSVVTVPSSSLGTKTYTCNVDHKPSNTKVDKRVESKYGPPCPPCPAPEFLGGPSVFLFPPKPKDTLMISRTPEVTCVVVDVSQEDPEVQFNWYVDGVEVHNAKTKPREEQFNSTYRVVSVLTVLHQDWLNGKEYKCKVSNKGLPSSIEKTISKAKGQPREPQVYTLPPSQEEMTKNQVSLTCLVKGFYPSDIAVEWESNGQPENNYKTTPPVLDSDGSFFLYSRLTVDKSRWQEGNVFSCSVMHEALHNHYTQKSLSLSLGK
light: B4 light
notes: humanized IgG4/kappa, VH2+VL5; transfection supernatant
B8: B21H4-55 (antibody, human IgG4 S228P, kappa)
heavy: not shown
light: B4 light
notes: humanized IgG4/kappa, VH5+VL5; transfection supernatant
B9: B21H4-15 (antibody, human IgG4 S228P, kappa)
heavy: not shown
light: B4 light
notes: humanized IgG4/kappa, VH1+VL5; transfection supernatant
B10: B21H4-11 (antibody, human IgG4 S228P, kappa)
heavy: not shown
light: DIQMTQSPSTLSASVGDRVTITCQASGNIYSFLAWYQQKPGKAPKLLIYTASNLETGVPSRFSGSGSGTEYTLTISSLQPDDFATYYCLGGLYSSDVSYAFGPGTKVEIKRTVAAPSVFIFPPSDEQLKSGTASVVCLLNNFYPREAKVQWKVDNALQSGNSQESVTEQDSKDSTYSLSSTLTLSKADYEKHKVYACEVTHQGLSSPVTKSFNRGEC
notes: humanized IgG4/kappa, VH1+VL1; transfection supernatant
B11: B21H4-42 (antibody, human IgG4 S228P, kappa)
heavy: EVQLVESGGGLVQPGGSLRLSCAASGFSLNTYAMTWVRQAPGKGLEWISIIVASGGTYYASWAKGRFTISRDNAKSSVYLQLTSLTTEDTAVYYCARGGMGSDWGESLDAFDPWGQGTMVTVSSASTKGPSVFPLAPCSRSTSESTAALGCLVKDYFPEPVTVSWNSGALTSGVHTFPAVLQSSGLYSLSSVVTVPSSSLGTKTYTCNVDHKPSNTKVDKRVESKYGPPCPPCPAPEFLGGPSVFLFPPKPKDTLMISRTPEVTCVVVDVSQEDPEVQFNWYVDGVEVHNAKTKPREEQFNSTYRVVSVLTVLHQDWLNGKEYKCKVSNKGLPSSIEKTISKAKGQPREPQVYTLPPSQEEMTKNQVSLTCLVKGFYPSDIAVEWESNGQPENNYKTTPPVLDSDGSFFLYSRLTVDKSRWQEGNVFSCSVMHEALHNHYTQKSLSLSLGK
light: B10 light with T10S, A43V, E70D, P80S, D81E, F83A, P103G, E108V
notes: humanized IgG4/kappa, VH4+VL2; transfection supernatant
B12: B21H4-12 (antibody, human IgG4 S228P, kappa)
heavy: not shown
light: B10 light with T10S, A43V, E70D, P80S, D81E, F83A, P103G, E108V
notes: humanized IgG4/kappa, VH1+VL2; transfection supernatant
B13: B21H4-23 (antibody, human IgG4 S228P, kappa)
heavy: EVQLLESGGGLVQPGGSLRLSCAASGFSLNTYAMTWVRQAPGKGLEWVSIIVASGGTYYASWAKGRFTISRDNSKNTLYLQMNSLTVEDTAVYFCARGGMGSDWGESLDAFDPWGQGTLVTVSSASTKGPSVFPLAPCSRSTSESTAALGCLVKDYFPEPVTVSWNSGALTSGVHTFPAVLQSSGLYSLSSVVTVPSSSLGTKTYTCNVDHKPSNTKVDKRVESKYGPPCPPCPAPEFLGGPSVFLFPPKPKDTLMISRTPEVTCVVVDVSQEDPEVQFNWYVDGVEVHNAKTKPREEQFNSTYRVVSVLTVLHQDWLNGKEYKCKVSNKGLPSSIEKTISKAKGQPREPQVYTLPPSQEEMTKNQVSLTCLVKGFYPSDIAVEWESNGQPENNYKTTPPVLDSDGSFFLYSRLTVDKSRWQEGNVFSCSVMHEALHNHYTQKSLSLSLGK
light: B10 light with Q3V, T10S, L11V, E70D, Y71F, D81E, P103G, E108V
notes: humanized IgG4/kappa, VH2+VL3; transfection supernatant
B14: B21H4-32 (antibody, human IgG4 S228P, kappa)
heavy: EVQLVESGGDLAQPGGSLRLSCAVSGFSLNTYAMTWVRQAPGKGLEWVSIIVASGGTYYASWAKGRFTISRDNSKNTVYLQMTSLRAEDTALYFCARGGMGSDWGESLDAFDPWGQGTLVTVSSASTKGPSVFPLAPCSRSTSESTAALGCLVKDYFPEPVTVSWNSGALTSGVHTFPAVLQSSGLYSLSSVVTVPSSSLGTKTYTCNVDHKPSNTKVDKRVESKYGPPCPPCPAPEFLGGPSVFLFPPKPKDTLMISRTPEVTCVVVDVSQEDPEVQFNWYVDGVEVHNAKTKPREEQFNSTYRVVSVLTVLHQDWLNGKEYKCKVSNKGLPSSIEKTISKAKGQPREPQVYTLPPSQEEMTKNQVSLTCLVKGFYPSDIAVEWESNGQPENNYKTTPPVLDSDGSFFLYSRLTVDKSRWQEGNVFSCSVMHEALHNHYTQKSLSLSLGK
light: B10 light with T10S, A43V, E70D, P80S, D81E, F83A, P103G, E108V
notes: humanized IgG4/kappa, VH3+VL2; transfection supernatant
B15: B21H4-21 (antibody, human IgG4 S228P, kappa, V domains shown)
VH: B5 VH with V5L, D10G, A12V, V24A, V78L, T83N, R86T, A87V, L92V
VL: B1 VL
notes: humanized IgG4/kappa, VH2+VL1; transfection supernatant
B16: B21H4-33 (antibody, human IgG4 S228P, kappa)
heavy: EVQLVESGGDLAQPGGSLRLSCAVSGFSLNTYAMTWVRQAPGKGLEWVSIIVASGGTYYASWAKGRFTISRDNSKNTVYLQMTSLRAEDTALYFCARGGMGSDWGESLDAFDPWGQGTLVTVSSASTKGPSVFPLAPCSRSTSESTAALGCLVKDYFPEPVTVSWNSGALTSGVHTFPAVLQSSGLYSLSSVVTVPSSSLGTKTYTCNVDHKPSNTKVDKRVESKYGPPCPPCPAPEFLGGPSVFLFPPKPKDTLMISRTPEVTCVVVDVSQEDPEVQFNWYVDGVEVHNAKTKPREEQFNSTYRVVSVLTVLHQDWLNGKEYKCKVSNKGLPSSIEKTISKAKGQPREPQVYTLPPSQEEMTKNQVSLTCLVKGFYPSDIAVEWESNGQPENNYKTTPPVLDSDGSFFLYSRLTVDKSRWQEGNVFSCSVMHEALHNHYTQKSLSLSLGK
light: B10 light with Q3V, T10S, L11V, E70D, Y71F, D81E, P103G, E108V
notes: humanized IgG4/kappa, VH3+VL3; transfection supernatant
B17: B21H4-24 (antibody, human IgG4 S228P, kappa)
heavy: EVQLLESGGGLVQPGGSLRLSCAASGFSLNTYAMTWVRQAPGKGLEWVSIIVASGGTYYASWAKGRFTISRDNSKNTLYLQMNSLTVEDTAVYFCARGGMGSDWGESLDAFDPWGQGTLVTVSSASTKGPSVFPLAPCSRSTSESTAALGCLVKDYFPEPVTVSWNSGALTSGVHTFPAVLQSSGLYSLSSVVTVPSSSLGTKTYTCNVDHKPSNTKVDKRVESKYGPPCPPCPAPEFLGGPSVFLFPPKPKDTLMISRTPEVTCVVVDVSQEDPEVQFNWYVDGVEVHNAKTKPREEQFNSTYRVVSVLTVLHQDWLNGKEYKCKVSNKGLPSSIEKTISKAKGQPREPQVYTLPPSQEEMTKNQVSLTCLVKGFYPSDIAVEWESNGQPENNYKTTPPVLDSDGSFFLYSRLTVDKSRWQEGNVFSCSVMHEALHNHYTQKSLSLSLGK
light: B10 light with I2V, Q3V, L11V, I21L, K42Q, A43P, S60D, E70D, P80A, P103Q
notes: humanized IgG4/kappa, VH2+VL4; transfection supernatant
B18: B21H4-22 (antibody, human IgG4 S228P, kappa)
heavy: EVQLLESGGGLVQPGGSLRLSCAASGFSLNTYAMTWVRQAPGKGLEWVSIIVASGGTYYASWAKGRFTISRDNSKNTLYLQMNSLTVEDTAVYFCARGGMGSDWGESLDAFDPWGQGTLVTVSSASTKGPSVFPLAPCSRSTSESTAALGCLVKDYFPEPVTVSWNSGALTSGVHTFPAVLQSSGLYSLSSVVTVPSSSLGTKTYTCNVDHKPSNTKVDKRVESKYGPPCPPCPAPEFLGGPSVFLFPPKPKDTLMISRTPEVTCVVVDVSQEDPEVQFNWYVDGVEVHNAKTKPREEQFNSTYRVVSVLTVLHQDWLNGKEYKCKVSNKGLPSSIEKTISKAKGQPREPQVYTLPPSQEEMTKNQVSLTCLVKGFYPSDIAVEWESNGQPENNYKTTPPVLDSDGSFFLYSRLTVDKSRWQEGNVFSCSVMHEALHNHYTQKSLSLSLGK
light: B10 light with T10S, A43V, E70D, P80S, D81E, F83A, P103G, E108V
notes: humanized IgG4/kappa, VH2+VL2; transfection supernatant
B19: B21H4-43 (antibody, human IgG4 S228P, kappa)
heavy: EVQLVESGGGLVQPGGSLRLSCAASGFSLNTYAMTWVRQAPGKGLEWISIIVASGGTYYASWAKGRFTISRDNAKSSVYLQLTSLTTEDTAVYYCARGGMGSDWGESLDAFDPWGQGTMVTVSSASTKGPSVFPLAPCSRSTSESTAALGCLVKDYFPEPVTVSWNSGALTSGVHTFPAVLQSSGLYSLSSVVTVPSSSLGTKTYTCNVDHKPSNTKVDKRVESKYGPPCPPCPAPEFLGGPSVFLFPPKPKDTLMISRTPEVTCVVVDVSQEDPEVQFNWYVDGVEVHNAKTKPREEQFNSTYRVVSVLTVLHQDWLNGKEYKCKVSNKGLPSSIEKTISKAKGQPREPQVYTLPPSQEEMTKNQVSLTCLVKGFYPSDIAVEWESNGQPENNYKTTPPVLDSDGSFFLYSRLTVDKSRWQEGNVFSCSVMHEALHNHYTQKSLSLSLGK
light: B10 light with Q3V, T10S, L11V, E70D, Y71F, D81E, P103G, E108V
notes: humanized IgG4/kappa, VH4+VL3; transfection supernatant

The target of one experiment is T1, recombinant human LILRB1-His (human, UniProt Q8NHL6 24-458).
T1 construct: Bought protein; also called LILRB1 protein
T1 sequence (Q8NHL6 24-458 limits assumed): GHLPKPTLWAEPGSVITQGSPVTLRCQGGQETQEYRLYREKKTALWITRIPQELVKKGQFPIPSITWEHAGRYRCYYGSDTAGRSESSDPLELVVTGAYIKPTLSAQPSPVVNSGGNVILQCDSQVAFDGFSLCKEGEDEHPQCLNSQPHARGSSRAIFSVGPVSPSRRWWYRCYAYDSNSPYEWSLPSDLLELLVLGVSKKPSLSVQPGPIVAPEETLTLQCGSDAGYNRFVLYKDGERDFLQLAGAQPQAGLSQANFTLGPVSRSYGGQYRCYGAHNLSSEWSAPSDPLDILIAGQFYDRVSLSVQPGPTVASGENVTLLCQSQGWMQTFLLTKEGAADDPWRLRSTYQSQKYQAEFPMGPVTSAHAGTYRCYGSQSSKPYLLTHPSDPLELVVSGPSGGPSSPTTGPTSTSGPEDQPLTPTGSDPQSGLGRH
Put plainly: MSD ELISA, coated antigen, transfection supernatant. Here is the method: (§1) To confirm binding to human LILRB1 and human LILRB2, transfection supernatants (obtained in Example 2) were evaluated for binding by ELISA. The conditioned media from these transient transfections were assayed for human IgG concentration by AlphaLISA® immunoassay (PerkinElmer, No. AL310C) (Table 4). A plate-based MSD ELISA was performed in which human LILRB1-His or LILRB2-His was immobilized, and binding of transfection supernatants of humanized mAb variants was detected via an anti-human IgG Sulfo-tag-labeled secondary antibody. The IgG1 version of the parental rabbit/human chimera (designated B21A1) transfection served as the benchmark EC₅₀ positive control.
(§2) Recombinant human and cynomolgus LILRB1 proteins (R&D Systems, No. 8989-T2-050; ACROBiosystems, No. CDJ-C52H3) and recombinant human and cynomolgus LILRB2 proteins (ACROBiosystems, No. LI2-H5220; No. L12-C52H3) were diluted in PBS to 4 μg/mL and added to a multi-array 384-well high-binding plates (MSD, No. L21XA4) at 10 μL/well and incubated at 4° C. overnight. The plates were washed several times with Wash Buffer (0.05% Tween® 20 in PBS), using a microplate washer and then blocked with 70 μL/well of 5% BSA in PBS for 1 hour (h) at room temperature (RT) with shaking at 700 rpm. After blocking, 20 μL/well of anti-LILRB2/LILRB1 antibodies or isotype control were added to the plates, and the plates were sealed and incubated for 2 h at RT with shaking at 700 rpm. After primary antibody binding, plates were washed five times with 70 μL/well of Wash Buffer (0.05% Tween® 20 in PBS) using a microplate washer. Secondary detection antibody (SULFO-TAG™-labeled goat anti-human IgG antibody (MSD, No. R32AJ-1)) was diluted to 4 μg/mL in assay diluent (1% BSA in PBS) and 10 μL/well was added to plates and incubated at RT protected from light for 1 h, with shaking at 700 rpm. Following incubation, plates were washed five times with Wash Buffer, using a microplate washer. After removal of the final wash, 35 μL/well of MSD Gold Read Buffer B (MSD, No. R60AM-4) was added to all wells using a Multidrop combo washer/dispenser, and plates were read using MESO Sector 600MM instrument (MSD) within 5 minutes (min) after addition of Read Buffer. Signals as counts per minute (cpm) were recorded.
B1: the EC50 came to 5.71 ng/mL.

For B2, the EC50 came out at 3.88 ng/mL.

In the case of B3, the EC50 was 3.23 ng/mL.

Consider B4, for which the EC50 was 4.7 ng/mL.

As for B5, the EC50 is 3.91 ng/mL.

Regarding B6, the EC50 came to 3.58 ng/mL.

On to B7, for which the EC50 turned out to be 3.95 ng/mL.

In the case of B8, the EC50 worked out at 2.92 ng/mL.

Turning to B9, the EC50 is 3.1 ng/mL.

As to B10, the EC50 stood at 2.24 ng/mL.

As to B11, the EC50 is 3.12 ng/mL.

As to B12, the EC50 was found to be 2.41 ng/mL.

For the molecule B13, the EC50 amounted to 2.85 ng/mL.

As for B14, the EC50 amounted to 2.46 ng/mL.

Turning to B15, the EC50 came to 2.32 ng/mL.

For the molecule B16, the EC50 was 2.66 ng/mL.

As for B17, the EC50 worked out at 1.95 ng/mL.

Regarding B18, the EC50 was found to be 1.85 ng/mL.

Consider B19, for which the EC50 was 3.04 ng/mL.

The target of a further experiment is T2, recombinant human LILRB2-His (human, UniProt Q8N423 22-461, limits assumed).
T2 construct: Bought protein; also called LILRB2 protein
T2 sequence (Q8N423 22-461 limits assumed): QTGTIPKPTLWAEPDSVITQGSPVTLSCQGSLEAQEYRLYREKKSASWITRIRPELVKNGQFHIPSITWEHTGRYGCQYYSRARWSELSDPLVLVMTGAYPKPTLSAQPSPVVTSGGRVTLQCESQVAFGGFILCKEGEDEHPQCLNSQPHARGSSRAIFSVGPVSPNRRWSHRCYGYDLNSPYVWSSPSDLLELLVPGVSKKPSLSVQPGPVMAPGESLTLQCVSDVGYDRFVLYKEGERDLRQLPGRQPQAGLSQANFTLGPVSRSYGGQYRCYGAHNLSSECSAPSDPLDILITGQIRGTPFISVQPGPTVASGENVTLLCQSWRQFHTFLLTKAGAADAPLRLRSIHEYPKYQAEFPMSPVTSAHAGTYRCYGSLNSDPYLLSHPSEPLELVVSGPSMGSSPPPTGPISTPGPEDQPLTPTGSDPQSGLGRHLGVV
Described as above. Here is the method: as §1, §2
For B1, the EC50 was 1.38 ng/mL.

Regarding B2, the EC50 came to 2.51 ng/mL.

As to B3, the EC50 is 1.63 ng/mL.

Consider B4, for which the EC50 was found to be 0.26 ng/mL.

As for B5, the EC50 turned out to be 1.73 ng/mL.

As for B6, the EC50 amounted to 2.02 ng/mL.

On to B7, for which the half-maximal effective concentration (EC50) is 1.42 ng/mL.

Take B8: the concentration for a half-maximal effect (EC50) is 1.57 ng/mL.

As for B9, the EC50 worked out at 1.25 ng/mL.

With B10, the EC50 is 1.45 ng/mL.

With B11, the EC50 turned out to be 1.08 ng/mL.

For B12, the EC50 amounted to 0.74 ng/mL.

Turning to B13, the EC50 was 1.08 ng/mL.

On to B14, for which the EC50 turned out to be 0.95 ng/mL.

Consider B15, for which the EC50 was determined as 1.93 ng/mL.

Take B16: the EC50 is 0.72 ng/mL.

Take B17: the EC50 is 0.84 ng/mL.

Consider B18, for which the EC50 is 1.06 ng/mL.

In the case of B19, the EC50 was 0.63 ng/mL.
